Each block holds one binder with its values, some of them ahead of it.
What was measured:
Conditions in all cases: both partners purified
CCM2^FL = target: T1, CCM2^FL (human, UniProt Q9BSQ5 1-438); assay: pull-down; GST fusions of MEKK3 immobilised on glutathione Sepharose-4B beads; 5 μl bead slurry and 60 μg purified CCM2 in 500 μl, 4 °C, 2 h; 150 mM NaCl, 50 mM Tris pH 7.5, 0.1% Triton-X100; Coomassie-stained SDS–PAGE of washed beads
T1 construct: CCM2, human, residues 1–438; also called full-length CCM2; CCM2^FL: 1–438; source: purified; not shown: His tag, N-terminal, cleaved

MEKK3^NPB1 [1] = target: T2, MEKK3^NPB1 (human, UniProt Q99759 1-124); assay: ITC; CCM2^HHD injected into MEKK3^NPB1 in 20 2.5-μl injections at 25 °C; 150 mM NaCl, 50 mM HEPES pH 7.5; nano-ITC; 'observed Kd'
T2 construct: MEKK3 (MAP3K3), human, residues 1–124 (N-terminal helix and PB1 domain); also called N terminus of MEKK3; 6 × His–MEKK3^NPB1 (before cleavage); not shown: His6, N-terminal, cleaved
T2 sequence: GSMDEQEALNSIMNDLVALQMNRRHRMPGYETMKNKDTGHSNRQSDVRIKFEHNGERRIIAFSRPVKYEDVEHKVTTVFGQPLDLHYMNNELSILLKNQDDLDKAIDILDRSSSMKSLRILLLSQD

MEKK3^NPB1 [2] = target: T2, MEKK3^NPB1; assay: SEC-MALS; CCM2^HHD:MEKK3^NPB1 complex used for crystallization, 100 μl of 1.5 mg ml^-1 in 150 mM NaCl, 20 mM Tris pH 8.0, 0.02% sodium azide

T1 sequence (Q9BSQ5 other isoform, or with tags, fused parts or gaps): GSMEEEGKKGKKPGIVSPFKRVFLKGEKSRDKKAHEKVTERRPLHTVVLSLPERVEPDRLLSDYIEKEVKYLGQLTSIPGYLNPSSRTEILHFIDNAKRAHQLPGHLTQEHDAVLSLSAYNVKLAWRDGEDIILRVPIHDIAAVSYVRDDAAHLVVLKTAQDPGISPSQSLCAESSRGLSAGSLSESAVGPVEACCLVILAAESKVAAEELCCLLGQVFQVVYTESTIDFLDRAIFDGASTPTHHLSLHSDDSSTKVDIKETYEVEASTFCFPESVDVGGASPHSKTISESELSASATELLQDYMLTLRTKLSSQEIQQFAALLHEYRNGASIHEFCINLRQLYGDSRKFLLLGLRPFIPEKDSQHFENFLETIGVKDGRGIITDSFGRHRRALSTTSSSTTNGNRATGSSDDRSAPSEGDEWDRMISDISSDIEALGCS

binding result (CCM2^FL): binds
B1: GST–MEKK3^NPB1 (domain or fragment, human, UniProt Q99759 1-124, looked up)
chain: MDEQEALNSIMNDLVALQMNRRHRMPGYETMKNKDTGHSNRQSDVRIKFEHNGERRIIAFSRPVKYEDVEHKVTTVFGQPLDLHYMNNELSILLKNQDDLDKAIDILDRSSSMKSLRILLLSQD
notes: MEKK3 (MAP3K3), human, residues 1–124 (N-terminal helix and PB1 domain); GST-pCDF vector; also called GST–MEKK3^NPB1: 1–124

Kd (MEKK3^NPB1 [1]): 1400 ± 400 nM
stoichiometry N (MEKK3^NPB1 [2]): 1
B2: CCM2^HHD (domain or fragment, human)
chain: GSSKTISESELSASATELLQDYMLTLRTKLSSQEIQQFAALLHEYRNGASIHEFCINLRQLYGDSRKFLLLGLRPFIPEKDSQHFENFLETIGVKDGRG
notes: CCM2, human, residues 283–379 (harmonin homology domain); also called CCM2 harmonin homology domain; CCM2^HHD: 283–379; source: E. coli Rosetta (DE3), purified (HisTrap, TEV cleavage, size exclusion); not shown: His6, N-terminal, cleaved

From PMC4526114, “Structure and vascular function of MEKK3–cerebral cavernous malformations 2 complex” (Nature Communications, 2015)
